# Like-named read-outs stand apart in the source and are kept apart here.
# T1: human DC-SIGN (Homo sapiens, UniProt Q9NNX6)
# T1 construct: expressed in transfected cells
# T1 sequence (Q9NNX6 1-404): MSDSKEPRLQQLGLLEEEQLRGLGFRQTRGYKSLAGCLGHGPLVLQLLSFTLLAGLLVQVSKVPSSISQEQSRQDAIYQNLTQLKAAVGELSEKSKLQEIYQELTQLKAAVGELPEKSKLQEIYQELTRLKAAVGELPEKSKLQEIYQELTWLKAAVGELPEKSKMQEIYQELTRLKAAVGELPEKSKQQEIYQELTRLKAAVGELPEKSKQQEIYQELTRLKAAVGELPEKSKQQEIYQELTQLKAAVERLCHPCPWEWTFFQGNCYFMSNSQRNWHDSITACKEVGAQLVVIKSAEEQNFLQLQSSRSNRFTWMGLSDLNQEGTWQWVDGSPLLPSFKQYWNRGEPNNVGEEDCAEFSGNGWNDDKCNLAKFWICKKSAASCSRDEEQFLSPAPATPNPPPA
# T2: DC-SIGN Carbohydrate Recognition Domain (CRD) (Homo sapiens, UniProt Q9NNX6)
# T2 construct: The DC-SIGN CRD was captured via the His tag; AviTag (C)
# T2 sequence (Q9NNX6 with tags, fused parts or gaps): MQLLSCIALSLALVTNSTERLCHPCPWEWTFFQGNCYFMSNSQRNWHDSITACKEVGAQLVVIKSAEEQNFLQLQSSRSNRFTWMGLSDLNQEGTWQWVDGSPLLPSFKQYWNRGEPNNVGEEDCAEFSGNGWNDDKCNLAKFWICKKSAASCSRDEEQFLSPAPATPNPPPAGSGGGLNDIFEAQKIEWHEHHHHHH
# B1: 2B2 (DAPA) DAR2 C1 (conjugate)
# VH: QVQLVQSGAEVKKPGASVKVSCKASGYTFTNYGINWVRQAPGQRLEWMGYIYIGNDYTEYNERFKGRVTITSDTSASTAYMELSSLRSEDTAVYYCARLYYGSSLYSYAMDYWGQGTTVTVSS
# VL: DIVMTQSPLSLPVTPGEPASISCRSSKSLLHSSGNTYLYWFLQKPGQSPQLLISRMSNLASGVPDRFSGSGSGTDFTLKISRVEAEDVGVYYCMQHLEYPYTFGGGTKVEIK
# B2: 892D15: anti-DC-SIGN antibody; All antibodies except 892D15 and 942K11 bind human and cynomolgus monkey DC-SIGN similarly; headings print 952D15 (antibody)
# heavy: QVTLRESGPALVKPTQTLTLTCTFSGFSPSTSGMSVSWIRQPPGKALEWLALIDWDDDKYFSTSLKTRLTISKDTSKNQVVLTMTNMDPVDTATYYCARAHSGSYFDYWGQGTLVTVSSASTKGPSVFPLAPSSKSTSGGTAALGCLVKDYFPCPVTVSWNSGALTSGVHTFPAVLQSSGLYSLSSVVTVPSSSLGTQTYICNVNHKPSNTKVDKRVEPKSCDKTHTCPPCPAPELLGGPSVFLFPPKPKDTLMISRTPEVTCVVVAVSHEDPEVKFNWYVDGVEVHNAKTKPREEQYNSTYRVVSVLTVLHQDWLNGKEYKCKVSNKALAAPIEKTISKAKGQPREPQVYTLPPSREEMTKNQVSLTCLVKGFYPCDIAVEWESNGQPENNYKTTPPVLDSDGSFFLYSKLTVDKSRWQQGNVFSCSVMHEALHNHYTQKSLSLSPGK
# light: DIQMTQSPSTLSASVGDRVTITCRASQSISNWLAWYQQKPGKAPKLLIYKASSLESGVPSRFSGSGSGTEFTLTISSLQPDDFATYYCQQFNSYWTFGQGTKVEIKRTVAAPSVFIFPPSDEQLKSGTASVVCLLNNFYPREAKVQWKVDNALQSGNSQESVTEQDSKDSTYSLSSTLTLSKADYEKHKVYACEVTHQGLSSPVTKSFNRGEC
# Key:
# [1] = system: CD11c+ dendritic cells of Tg+ mice; test: Dendritic cell activation in DC-SIGN Tg+ mice (spleen, flow cytometry); assay type: in vivo, mouse
# Procedure: Spleens were harvested 24 hours post dose and analyzed by flow cytometry to look at CD11c+ dendritic cells.
# [2] = system: transgenic mice expressing human DC-SIGN gene (Tg+); test: Plasma cytokine production in transgenic mice expressing human DC-SIGN (ELISA / MesoScaleDiscovery); assay type: in vivo, mouse
# Procedure: FIGS. 5A-5E show exemplary data on DC-SIGN immunoconjugates inducing cytokine production in Tg+ mice. […] Plasma levels were analyzed by ELISA (IP-10 and IFNβ) or MesoScaleDiscovery Multiplex analysis (all other analytes). **** denotes p value of <0.0001 using an ANOVA with Tukey's test compared to Tg-2B2 hlgG1 DAPA C1 group.
# Mice were bled 6 hours after dosing to collect plasma for analysis of circulating cytokine levels.
# human DC-SIGN [3] = target: T1, human DC-SIGN; test: FACS binding to CHO cells stably expressing human DC-SIGN; details: FACS MFI, average
# Procedure: (§1) The affinity of various antibodies and ADCs to DC-SIGN and its species orthologues was determined using FACS. Purified IgGs were titrated to determine EC50 values for binding to cell surface expressed DC-SIGN.
# (§2) For this purpose, human DC-SIGN expressing or cynomolgus monkey DC-SIGN expressing stable CHO cell lines or K562 expressing DC-SIGN or K562 expressing L-SIGN cell lines were checked for density and viability using VICELL (Beckman Coulter), and washed once with 4° C. PBS. Cells were stained with DAPI (0.5 ug/mL) diluted in PBS for 30 min on ice. Cells were diluted into 4° C. FACS buffer (PBS, 10 mM EDTA, 2% FBS). 125 μl of cells were seeded (10,000 cells/well) into 96-well v-bottom plates (Nunc cat#442587) and centrifuged for 4 min at 1500 rpm at 4° C. Supernatant was removed. Cells were incubated with a serial dilution of each anti-DC-SIGN antibody in FACS buffer at concentrations ranging across several logs with a top concentration no higher than 50 μg/mL for 60 minutes at 4° C. Following incubation, cells were spun down (1500 rpm, 4 min, 4° C.) and washed two times with FACS buffer. A fluorophore-conjugated anti-hFc gamma-AF-647 (Southern Biotechnology) detection antibody was added at 1:400 and samples were incubated for 1 h on ice in the dark. Following incubation, FACS buffer was added, and the cells were spun down (1500 rpm, 4 min, 4° C.) and washed two times with FACS buffer. After the final wash, cells were resuspended in Fixative Buffer (Biolegend, 420801) and 90 μl of FACS buffer followed by readout on the flow cytometry machine (BD LSRFortessa Cell Analyzer; Cat #647177). Geometric Mean fluorescence intensity (MFI) of live, single cells was calculated in Flowjo 10.4.2 and exported into Graphpad Prism7 for EC50 determination.
# human DC-SIGN [4] = target: T1, human DC-SIGN; test: FACS binding to K562 cells expressing human DC-SIGN; details: FACS MFI
# Procedure: as §1, §2
# [5] = target: T2, DC-SIGN Carbohydrate Recognition Domain (CRD); test: Biacore affinity to DC-SIGN Carbohydrate Recognition Domain; assay type: binding; details: 25° C.
# Procedure: The affinity of various antibodies to DC-SIGN Carbohydrate Recognition Domain (CRD) was determined using Biacore. Purified IgGs for the parental antibodies were titrated to determine Kd values for binding to purified antigen domain by two methods described below.
# In method 1 DC-SIGN was used as the ligand (surface attached) and the antibody the analyte (injected at different concentrations). The DC-SIGN CRD was captured via the His tag on a CM5 chip that was prepared by immobilizing 12000RU NeutrAvidin followed by capturing ˜550RU of Tris-NTA biotin. Fresh DC-SIGN was used for each dose. Each cycle consisted of charging the surface with a 120s pulse of 5 mM NiCl2, capturing the same amount of DC-SIGN, injecting the antibody at the desired concentration, and stripping the Ni^2+ with pulses of 350 mM EDTA and 500 mM imidazole to remove all DC-SIGN. Antibodies were injected at concentrations between 250 and 31 nM for 180s and allowed to dissociate for 600s. The reverse orientation was used in method 2-antibody the ligand and DC-SIGN the analyte. A CM5 chip was first prepared with mouse anti-human IgG Fc and used to capture the antibodies. […] Kinetic parameters were calculated using the 8K analysis software.
# [6] = system: cynomolgus monkey DC-SIGN; test: FACS binding to CHO cells stably expressing cynomolgus monkey DC-SIGN; details: FACS MFI, average
# cynomolgus monkey DC-SIGN, sequence (as listed by the source): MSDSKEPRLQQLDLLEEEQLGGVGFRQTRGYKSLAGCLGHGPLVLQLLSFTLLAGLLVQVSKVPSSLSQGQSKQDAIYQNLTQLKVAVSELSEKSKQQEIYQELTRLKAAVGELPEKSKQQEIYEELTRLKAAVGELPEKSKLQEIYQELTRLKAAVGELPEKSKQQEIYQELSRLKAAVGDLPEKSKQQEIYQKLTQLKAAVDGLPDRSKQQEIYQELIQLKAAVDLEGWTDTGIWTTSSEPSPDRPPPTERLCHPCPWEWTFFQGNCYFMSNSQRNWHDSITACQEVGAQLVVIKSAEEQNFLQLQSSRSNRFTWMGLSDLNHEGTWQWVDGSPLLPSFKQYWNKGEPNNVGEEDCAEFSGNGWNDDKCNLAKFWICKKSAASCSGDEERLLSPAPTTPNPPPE
# Procedure: as §1, §2
# In a similar experiment the antibodies were tested for cross-reactivity using engineered isogenic matched cell line.
Molecule,CD86 upregulation on dendritic cells (DC activation) [1],circulating plasma IL-12p70 [2],circulating plasma IP-10 [2],human DC-SIGN CHO EC50 (ug/mL) ave. (human DC-SIGN [3]),human DC-SIGN K562 EC50 (human DC-SIGN [4]),"Kd ([5]; method 1: DC-SIGN CRD captured on chip, antibody as analyte, read-out: high density DC-SIGN CRD on chip)","Kd ([5]; method 2: antibody captured on chip, DC-SIGN CRD as analyte, read-out: Ab on chip)",cyno DC-SIGN CHO EC50 (ug/mL) ave. [6]
B1,induced DC activation,induced,induced,,,,,
B2,,,,0.15 µg/mL,>10 mg/L,0.111 µM,47.6 µM,15.69 µg/mL

# Reference: patent US20210170043A1, “DC-SIGN ANTIBODY CONJUGATES COMPRISING STING AGONISTS” (NOVARTIS AG, priority 2018, published 2021)
